From US6034062A, “Bone morphogenetic protein (BMP)-9 compositions and their uses” (Genetics Institute, Inc., priority 1997, dated 2000)

Tests used:
primary rat hepatocytes = assay: Primary rat hepatocyte 3H-thymidine incorporation; format: cell-based
Method: As a first indication of BMP-9 effects on confluent, serum starved HepG2 cells, cell proliferation is examined as determined by ^3 H-thymidine incorporation and cell counting. HepG2 cells are plated at […] in 96 well plates and cultured for 48 hours in DME/0.1% FCS to synchronize the cell cycle are treated for 24 hours with or without BMP-9 in the presence of 0.1% FCS. In ^3 H-thymidine incorporation assays, ^3 H-thymidine was included during the last 4 hours of treatment and cellular DNA was collected with a 96 well plate cell harvester. Proliferation was assayed by quantifying ethanol-precipitable ^3 H-thymidine incorporation by liquid scintillation counting. For cell counting assays, cells were trypsinized and counted with a hemacytometer. […] BMP-9 stimulates ^3 H-thymidine incorporation in HepG2 cells approximately five fold.
To determine if this proliferative effect of BMP-9 was unique to the HepG2 liver tumor cell line, primary rat hepatocytes were tested for effects of BMP-9 on ^3 H-thymidine incorporated as shown in FIG. 4.

[1] = tested on: A-549 lung epithelial cells; assay: Cell proliferation, [3H]thymidine incorporation, A-549; format: cell-based; details: subconfluent, 24 h
Method: (§1) Several cell lines are tested for BMP-9 responsiveness in vitro. Cell proliferation, as indicated by [^3 H]thymidine incorporation, is determined in cell lines derived from kidney and lung. Cell proliferation is determined by measuring [^3 H]thymidine incorporation in subconfluent cells treated for 24 h with or without growth factors. NRK-52E (ATCC CRL 1571), WI-38 (ATCC CCL-75), CCD-11Lu (ATCC CCL-202), CCD-16Lu (ATCC CCL-204), and A-549 (ATCC CCL-185) cell lines are placed at 10^4 cells/well in 96 well plates and assayed for [^3 H]thymidine incorporation as described above. IMCD-3 cells (ATCC #CRL-2123) are cultured in a collagen matrix as described by Barros et al., PNAS USA 92:4412-4416 (1995), and treated with growth factors for 6 days to allow tubule formation.

Chang = assay: 125I-BMP-9 binding to Chang liver cell line; details: iodinated CHO-derived BMP-9
Method: (§2) BMP-9 responsiveness in parenchymal liver cells is tested by screening four liver cell lines for their ability to bind iodinated, CHO-derived BMP-9. […] Specific binding of BMP-9 to HepG2 cells is carried out by incubating HepG2 cells grown to confluence in Dulbecco's Modified Eagle's Medium (DME) containing 10% heat-inactivated fetal calf serum (FCS) on gelatinized 6 well plates with 2 ng/ml ^125 I-BMP-9 and increasing concentrations of unlabelled BMP-9 in binding buffer (136.9 mM NaCl, 5.37 mM KCl, 1.26 mM CaCl2, 0.64 mM MgSO4, 0.34 mM Na2 HPO4, 0.44 mM KH2 PO4, 0.49 mM MgCl2, 25 mM HEPES and 0.5% BSA, pH 7.4) for 20 hours at 4° C. to achieve binding equilibrium. This incubation follows a one hour preincubation at 37° C. in binding buffer alone. For crosslinking experiments, the cells were incubated with 500 μM disuccinimidyl suberate for 20 minutes at […] following binding. Cell extracts were analyzed on SDS-PAGE. […] The curvilinear nature of the Scatchard plot indicates negative cooperativity among BMP-9 receptors or that HepG2 cells express at least two populations of BMP-9 receptors with different affinities. Crosslinking analysis on HepG2 cells with ^125 I-BMP-9 yields two binding proteins of apparent molecular weights of 54 and 80 kD. […]

kidney plasma membranes = assay: [125I]rhBMP-9 binding to kidney plasma membranes; parameters: species or system rat
Method: To determine potential target tissues for BMP-9, plasma membrane preparations from adult rat organs are screened for specific [^125 I]rhBMP-9 binding. Plasma membranes are prepared by the methods of Neville, J. Biophys Biochem Cytol 8:412-422 (1960) and Ray, Biochim Biophys Acta 196:1-9 (1970) with the following modifications: Fresh tissues from adult male Long-Evans rats are homogenized with 10 strokes of a teflon homogenizer. Plasma membranes are collected from discontinuous sucrose gradients at 37%/41% sucrose interface and the 41%/45% sucrose interface. Homogenization buffer and sucrose solutions are supplemented with 0.7 μg/ml leupeptin, 2 μg/ml aprotinin and 240 μg/ml pefabloc. Protein levels in plasma membrane preparations are determined by the bicinchoninic acid assay (Pierce, Rockford, Ill.) using immunoglobulin G as a standard.
BMP-9 binding is carried out by suspending plasma membranes at 30 μg/100μl in binding buffer (136.9 mM NaCl, 5.37 mM KCl, 1.26 mM CaCl2, 0.64 mM MgSO4, 0.34 mM Na2 HPO4, 0.44 mM KH2 PO4, 0.49 mM MgCl2, 25 mM HEPES and 0.5% BSA, pH 7.4) containing o.5 ng [^125 I]rhBMP-9. Binding is allowed to equilibrate by incubation for 16 h at 4° C. […]
To verify that this specific binding is of high affinity, a more complete displacement profile is determined with lung and kidney plasma membranes.

NMuli = assay: 125I-BMP-9 binding to NMuli liver cell line; details: iodinated CHO-derived BMP-9
Method: as §2

NCTC1469 = assay: 125I-BMP-9 binding to NCTC1469 liver cell line; details: iodinated CHO-derived BMP-9
Method: as §2

[2] = tested on: NRK-52E kidney epithelial cells; assay: Cell proliferation, [3H]thymidine incorporation, NRK-52E; format: cell-based; details: subconfluent, 24 h
Method: as §1

B1: BMP-9: recombinant human bone morphogenetic protein-9, mature amino acids #1-#110 of SEQ ID NO:9, expressed in CHO cells (protein)
chain: TRECSRSCPRTAPQRQVRAVTRRTRMAHVAAGSTLARRKRSAGAGSHCQKTSLRVNFEDIGWDSWIIAPKEYEAYECKGGCFFPLADDVTPTKHAIVQTLVHLKFPTKVG
modifications: 125I-iodinated as tracer; unlabelled BMP-9 used as the displacing ligand
3H-thymidine incorporation (primary rat hepatocytes; confluent primary rat hepatocytes): confluent primary hepatocytes did not
3H-thymidine incorporation (primary rat hepatocytes; subconfluent primary rat hepatocytes, 36 hours, serum-free): stimulated ^3 h-thymidine incorporation in primary hepatocytes, although not as markedly as EGF
cell proliferation ([3H]thymidine incorporation) [1]: inhibited proliferation
specific binding of 125I-BMP-9 (Chang): to some extent
specific [125I]rhBMP-9 binding (kidney plasma membranes; adult rat kidney plasma membranes, displaceable by 100-fold excess of unlabeled rhBMP-9): evident
Kd (kidney plasma membranes; rat kidney plasma membranes): 0.3 nM
specific binding of 125I-BMP-9 (NMuli): to some extent
specific binding of 125I-BMP-9 (NCTC1469): highest degree of binding
cell proliferation ([3H]thymidine incorporation) [2]: inhibited proliferation
